In assay [1] the target is Mis12C/KNL1^2026-2342 complex (human) (UniProt Q9H081). As to the kind of experiment: BLI. (BLI is a label-free optical method that tracks binding on a fibre tip over time.)
Assay [2] concerns the target Mis12 complex (full length; MIS12, PMF1, NSL1, DSN1) (human) (UniProt Q9H081). As to the kind of experiment: BLI.
Assay [3] shares this target. As to the kind of experiment: ITC. For orientation: ITC needs no label: the signal is the heat of the interaction.
The target in assay [4] is T1, DSN1 (subunit of the Mis12 complex in the KMN cryo-EM sample) (human, UniProt Q9H410 1-356).
T1 sequence (looked up): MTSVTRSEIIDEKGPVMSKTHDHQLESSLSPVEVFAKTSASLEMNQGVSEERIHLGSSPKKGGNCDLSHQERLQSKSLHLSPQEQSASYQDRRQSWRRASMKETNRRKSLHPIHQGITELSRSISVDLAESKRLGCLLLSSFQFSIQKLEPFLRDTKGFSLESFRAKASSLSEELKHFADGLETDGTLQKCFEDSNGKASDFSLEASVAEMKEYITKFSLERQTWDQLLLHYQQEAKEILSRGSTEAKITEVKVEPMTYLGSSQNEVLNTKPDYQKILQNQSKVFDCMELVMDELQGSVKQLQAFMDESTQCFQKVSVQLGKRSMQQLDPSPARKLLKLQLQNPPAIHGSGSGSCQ
Nature of the assay: cryo-EM structure.

Assay [5] deals with T2, NSL1 (subunit of the Mis12 complex in the KMN cryo-EM sample) (human, UniProt Q96IY1 1-281).
T2 sequence (looked up): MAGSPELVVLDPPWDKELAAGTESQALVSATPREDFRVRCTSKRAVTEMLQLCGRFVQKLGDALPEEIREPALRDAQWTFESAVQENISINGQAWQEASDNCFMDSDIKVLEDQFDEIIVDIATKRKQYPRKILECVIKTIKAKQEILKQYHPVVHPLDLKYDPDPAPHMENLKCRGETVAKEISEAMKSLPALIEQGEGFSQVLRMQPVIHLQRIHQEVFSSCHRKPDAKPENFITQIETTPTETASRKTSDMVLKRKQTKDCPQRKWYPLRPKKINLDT
Nature of the assay: cryo-EM structure.

Assay [6] deals with Mis12 complex mutant Mis12C^M4 (human) (UniProt Q9H081). Nature of the assay: ITC.
For assay [7], the target named is Mis12 complex mutant Mis12C^M3 (human) (UniProt Q9H081). As to the kind of experiment: ITC.
In a further assay the target is T3, SPC25 residues 92-224 (human, UniProt Q9HBM1 92-224).
T3 sequence (looked up): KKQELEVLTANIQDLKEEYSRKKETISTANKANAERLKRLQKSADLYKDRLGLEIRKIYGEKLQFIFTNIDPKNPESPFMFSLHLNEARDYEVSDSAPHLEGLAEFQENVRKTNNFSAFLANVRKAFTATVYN
As to the kind of experiment: cryo-EM structure.

The target in assay [8] is Ndc80 complex (NDC80/HEC1, NUF2, SPC24, SPC25) (human, UniProt O14777 1-642; Q9BZD4 1-464; Q8NBT2 1-197; Q9HBM1 1-224). As to the kind of experiment: BLI.

Broadly, the Kd is the free concentration of one partner at which half of the binding sites on the other are occupied at equilibrium, for simple one-to-one binding. A high value points to lower affinity. By koff is commonly meant the first-order rate constant of dissociation.

Ndc80 complex (NDC80/HEC1, NUF2, SPC24, SPC25), sequence (O14777 whole entry, chain 1 of 2): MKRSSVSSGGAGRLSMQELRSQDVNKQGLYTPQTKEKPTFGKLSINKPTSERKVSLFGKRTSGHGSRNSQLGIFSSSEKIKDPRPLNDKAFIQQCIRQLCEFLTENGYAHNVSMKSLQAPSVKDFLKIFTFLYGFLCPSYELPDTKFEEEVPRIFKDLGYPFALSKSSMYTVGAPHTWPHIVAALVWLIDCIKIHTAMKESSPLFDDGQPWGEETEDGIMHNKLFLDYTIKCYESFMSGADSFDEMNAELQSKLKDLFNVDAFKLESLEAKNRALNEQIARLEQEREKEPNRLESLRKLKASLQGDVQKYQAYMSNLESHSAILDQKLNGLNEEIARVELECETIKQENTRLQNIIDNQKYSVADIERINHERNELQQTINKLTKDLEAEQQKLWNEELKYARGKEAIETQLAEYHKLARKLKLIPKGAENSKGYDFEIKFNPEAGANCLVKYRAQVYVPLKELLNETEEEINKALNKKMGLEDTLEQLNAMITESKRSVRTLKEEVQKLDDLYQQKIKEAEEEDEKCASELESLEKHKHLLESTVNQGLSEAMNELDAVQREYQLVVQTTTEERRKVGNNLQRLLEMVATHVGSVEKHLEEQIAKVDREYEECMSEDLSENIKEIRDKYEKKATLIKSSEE
Ndc80 complex (NDC80/HEC1, NUF2, SPC24, SPC25), sequence (Q9BZD4 whole entry, chain 2 of 2): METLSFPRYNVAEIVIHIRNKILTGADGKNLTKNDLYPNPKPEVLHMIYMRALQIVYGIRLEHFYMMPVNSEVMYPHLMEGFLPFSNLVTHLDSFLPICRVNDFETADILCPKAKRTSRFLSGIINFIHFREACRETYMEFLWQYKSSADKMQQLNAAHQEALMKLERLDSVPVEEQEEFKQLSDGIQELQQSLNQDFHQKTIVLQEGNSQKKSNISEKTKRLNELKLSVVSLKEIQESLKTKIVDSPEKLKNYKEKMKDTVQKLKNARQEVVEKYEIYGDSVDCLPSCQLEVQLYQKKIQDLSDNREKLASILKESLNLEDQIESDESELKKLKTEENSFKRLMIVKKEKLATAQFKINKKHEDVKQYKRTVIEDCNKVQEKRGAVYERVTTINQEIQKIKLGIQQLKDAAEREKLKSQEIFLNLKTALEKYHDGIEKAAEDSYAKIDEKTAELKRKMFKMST

Take “Ndc80 complex (NDC80/HEC1, NUF2, SPC24, SPC25) (from UniProt O14777 1-642; Q9BZD4 1-464; Q8NBT2 1-197; Q9HBM1 1-224)”: in [1], the Kd came to 1 nM and the koff worked out at 0.0001 s⁻¹.
Regarding “KNL1 residues 2026-2342 (domain or fragment)”, the Kd in assay [2] is 2 nM; in [3], 1.6 nM.

B1: SPC24^109-197/SPC25^92-224 dimer (complex, human)
chain 1: EELKEIEADLERQEKEVDEDTTVTIPSAVYVAQLYHQVSKIEWDYECEPGMVKGIHHGPSVAQPIHLDSTQLSRKFISDYLWSLVDTEW
chain 2: KKQELEVLTANIQDLKEEYSRKKETISTANKANAERLKRLQKSADLYKDRLGLEIRKIYGEKLQFIFTNIDPKNPESPFMFSLHLNEARDYEVSDSAPHLEGLAEFQENVRKTNNFSAFLANVRKAFTATVYN
For the molecule B1, the binding result in assay [4] and in assay [5] was “binds” in each case. The fold reduction of the binding affinity against wild-type Mis12C in assay [6] amounted to 10 fold; in assay [7] it was 20 fold.

B2: SPC24 residues 109-197 (domain or fragment, human, UniProt Q8NBT2 109-197, looked up)
chain: EELKEIEADLERQEKEVDEDTTVTIPSAVYVAQLYHQVSKIEWDYECEPGMVKGIHHGPSVAQPIHLDSTQLSRKFISDYLWSLVDTEW
As to B2, in the assay with SPC25 residues 92-224, the binding result is reported as “binds”.

B3: Mis12 complex (full length; MIS12, PMF1, NSL1, DSN1) (complex, human)
chain 1: MSVDPMTYEAQFFGFTPQTCMLRIYIAFQDYLFEVMQAVEQVILKKLDGIPDCDISPVQIRKCTEKFLCFMKGHFDNLFSKMEQLFLQLILRIPSNILLPEDKCKETPYSEEDFQHLQKEIEQLQEKYKTELCTKQALLAELEEQKIVQAKLKQTLTFFDELHNVGRDHGTSDFRESLVSLVQNSRKLQNIRDNVEKESKRLKIS
chain 2: MAEASSANLGSGCEEKRHEGSSSESVPPGTTISRVKLLDTMVDTFLQKLVAAGSYQRFTDCYKCFYQLQPAMTQQIYDKFIAQLQTSIREEISDIKEEGNLEAVLNALDKIVEEGKVRKEPAWRPSGIPEKDLHSVMAPYFLQQRDTLRRHVQKQEAENQQLADAVLAGRRQVEELQLQVQAQQQAWQALHREQRELVAVLREPE
chain 3: MAGSPELVVLDPPWDKELAAGTESQALVSATPREDFRVRCTSKRAVTEMLQLCGRFVQKLGDALPEEIREPALRDAQWTFESAVQENISINGQAWQEASDNCFMDSDIKVLEDQFDEIIVDIATKRKQYPRKILECVIKTIKAKQEILKQYHPVVHPLDLKYDPDPAPHMENLKCRGETVAKEISEAMKSLPALIEQGEGFSQVLRMQPVIHLQRIHQEVFSSCHRKPDAKPENFITQIETTPTETASRKTSDMVLKRKQTKDCPQRKWYPLRPKKINLDT
chain 4: MTSVTRSEIIDEKGPVMSKTHDHQLESSLSPVEVFAKTSASLEMNQGVSEERIHLGSSPKKGGNCDLSHQERLQSKSLHLSPQEQSASYQDRRQSWRRASMKETNRRKSLHPIHQGITELSRSISVDLAESKRLGCLLLSSFQFSIQKLEPFLRDTKGFSLESFRAKASSLSEELKHFADGLETDGTLQKCFEDSNGKASDFSLEASVAEMKEYITKFSLERQTWDQLLLHYQQEAKEILSRGSTEAKITEVKVEPMTYLGSSQNEVLNTKPDYQKILQNQSKVFDCMELVMDELQGSVKQLQAFMDESTQCFQKVSVQLGKRSMQQLDPSPARKLLKLQLQNPPAIHGSGSGSCQ
In assay [8], B3 returned a Kd of approximately 6 nM and an off-rate constant (koff) of approximately 0.0001 s⁻¹.
